Data published in patent US20240336686A1 (ELPISCIENCE SUZHOU BIOPHARMA, published 2024).
Substitutions are numbered along the chain they refer to. Blank lines part the entries; values can stand above or below the binder they belong to.

What was measured:
[1] = molecular target: human PDL1 protein (Octet assay) (human, UniProt Q9NZQ7 19-238); test: Octet; antibody on sensor, PDL1 protein in solution
Method: (§1) The Anti-PDL1/SIRPα bispecific protein were characterized for binding affinity against human PDL1 using Octet assay (ForeBio) according to manufacturer's manual, separately. Briefly, the antibodies were coupled on sensors and then the sensors were dipped into PDL1 protein gradients (start at 200 nM, with 2-fold dilution and totally 8 doses). Their binding responses were measured in real-time and results were fit globally.

[2] = molecular target: T1, human Claudin18.2 protein (Octet assay) (human, UniProt P56856-2 1-261, limits assumed); test: Octet; antibody on sensor, Claudin18.2 protein in solution
T1 construct: UniProt P56856 isoform A2 corresponds to Claudin18.2; also called CLDN18.2
T1 sequence (looked up): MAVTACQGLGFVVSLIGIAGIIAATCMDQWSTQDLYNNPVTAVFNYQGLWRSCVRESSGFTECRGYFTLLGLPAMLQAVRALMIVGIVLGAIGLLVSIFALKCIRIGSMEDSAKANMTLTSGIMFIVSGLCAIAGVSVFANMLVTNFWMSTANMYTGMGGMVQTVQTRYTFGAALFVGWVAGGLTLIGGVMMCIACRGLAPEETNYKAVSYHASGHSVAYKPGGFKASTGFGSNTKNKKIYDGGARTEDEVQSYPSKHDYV
Method: as §1, with “Anti-Claudin18.2/SIRPα” for “Anti-PDL1/SIRPα”, “Claudin18.2 or SIRPα” for “PDL1”

Sequence of human PDL1 protein (Octet assay) (Q9NZQ7 19-238 limits assumed): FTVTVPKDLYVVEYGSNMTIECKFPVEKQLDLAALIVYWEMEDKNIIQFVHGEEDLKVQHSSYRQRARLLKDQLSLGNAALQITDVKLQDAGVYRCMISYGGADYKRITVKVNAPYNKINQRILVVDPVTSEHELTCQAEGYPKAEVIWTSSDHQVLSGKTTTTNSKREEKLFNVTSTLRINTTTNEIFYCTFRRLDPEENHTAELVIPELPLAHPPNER

B3: Anti-PDL1 antibody C570 (antibody, V domains shown)
VH: EVQLVESGGGLVQAGGSLRLSCAASGFTFSSHAMSWVRQAPGKGLEWVSDIDTSGTTTDYADSVKGRFTISRDNAKNTLYLQMNSLKPEDTAVYYCAKGPREATDIRSWGQGTQVTVSS
notes: Heavy chain antibody; also called Anti-PDL1, C570
Kd [1]: 0.374 nM
koff [1]: 0.000306 s⁻¹
kon [1]: 819000 M⁻¹ s⁻¹

B6: Anti-Claudin18.2 antibody hu28.H1L2 (antibody, V domains shown)
VH: QVQLVQSGAEVKKPGASVKVSCKASGYTFTNWVHWVRQAPGQGLEWMGEINPTNARSNYNEKFKKRVTMTRDTSTSTVYMELSSLRSEDTAVYYCARIYYGNSFAHWGQGTLVTVSS
VL: DIVMTQSPDSLAVSLGERATINCKSSQSLLNAGNQKNYLTWYQQKPGQPPKLLIYWSSTRESGVPDRFSGSGSGTDFTLTISSLQAEDVAVYHCQNNYYYPLTFGGGTKLEIK
notes: Humanized monoclonal antibody; also called Anti-Claudin18.2, hu28.H1L2
Kd [2]: < 0.001 nM
koff [2]: < 1e-07 s⁻¹
kon [2]: 95800 M⁻¹ s⁻¹

B7: Anti-Claudin18.2/SIRPα bispecific antibody ES028-001 (bispecific antibody)
light (part 1 of 2): B6 VL
light (part 2 of 2): GGGGSGGGGSGGGGSQIVLTQSPAIMSASPGEKVTLTCSASSSVSSSYLYWYQQKPGSSPKLWIYSTSNLASGVPARFSGSGSGTSYSLTISSMEAEDAASYFCHQWSSYPYTFGGGTKLEIKGGGGSGGGGSGGGGSGGGGSEVQLQQSGAELVKPGASVKLSCTASGFNIKDYYMHWVKQRTEQGLEWIGRIDPEDGETKYAPKFQGKATITADTSSNTAYLQLSSLTSEDTAVYYCDRGLAYWGQGTLVTVSA
heavy: B6 VH
notes: not shown: CL; CH1-Fc
Kd [2]: < 0.001 nM
koff [2]: < 1e-07 s⁻¹
kon [2]: 105000 M⁻¹ s⁻¹

B8: Anti-Claudin18.2/SIRPα bispecific antibody ES028-005 (bispecific antibody)
light: B6 VL
heavy (part 1 of 2): B6 VH
heavy (part 2 of 2): B7 light (part 2 of 2)
notes: not shown: CL; CH1-Fc
Kd [2]: < 0.001 nM
koff [2]: < 1e-07 s⁻¹
kon [2]: 106000 M⁻¹ s⁻¹

Next, values leading:

Kd [1]: 3.81 nM
koff [1]: 0.00604 s⁻¹
kon [1]: 1.58e+06 M⁻¹ s⁻¹
B1: Anti-PDL1/SIRPα bispecific antibody ES019-025 (bispecific antibody)
light: QIVLTQSPAIMSASPGEKVTLTCSASSSVSSSYLYWYQQKPGSSPKLWIYSTSNLASGVPARFSGSGSGTSYSLTISSMEAEDAASYFCHQWSSYPYTFGGGTKLEIK
heavy (part 1 of 2): EVQVVESGGGLVQSGGSLKLSCAGSGFTESAGFMVWHRQVPGKERELVALIATPSGSTNYADSVKGRFTISRDNGKNTVYLQMNSLKPEDTAVYYCNIRGYWGQGTLVTVSS
heavy (part 2 of 2): EVQLQQSGAELVKPGASVKLSCTASGFNIKDYYMHWVKQRTEQGLEWIGRIDPEDGETKYAPKFQGKATITADTSSNTAYLQLSSLTSEDTAVYYCDRGLAYWGQGTLVTVSA
notes: not shown: CL; linker; CH1-Fc

Kd [1]: 1.23 nM
koff [1]: 0.00136 s⁻¹
kon [1]: 1.11e+06 M⁻¹ s⁻¹
B2: Anti-PDL1/SIRPα bispecific antibody ES019-029 (bispecific antibody)
chain 1: B1 heavy (part 1 of 2)
chain 2: B1 heavy (part 2 of 2)
chain 3: B1 light

Kd [1]: 0.0485 nM
koff [1]: 2.85e-05 s⁻¹
kon [1]: 588000 M⁻¹ s⁻¹
B4: Anti-PDL1/SIRPα bispecific antibody ES019-079 (bispecific antibody)
light: B1 light
heavy (part 1 of 2): B3 VH
heavy (part 2 of 2): GGGGSGGGGSGGGGSEVQLQQSGAELVKPGASVKLSCTASGFNIKDYYMHWVKQRTEQGLEWIGRIDPEDGETKYAPKFQGKATITADTSSNTAYLQLSSLTSEDTAVYYCDRGLAYWGQGTLVTVSA
notes: not shown: CL; linker and Fc; CH1

Kd [1]: 0.198 nM
koff [1]: 9.29e-05 s⁻¹
kon [1]: 470000 M⁻¹ s⁻¹
B5: Anti-PDL1 antibody 570h3 (antibody, V domains shown)
VH: B3 VH with A14P, A75S, K87R, P88A, Q114T
notes: Humanized heavy chain antibody; also called Anti-PDL1, 570h3
